Experimental data: the Human Domainome abundance scans (Beltran et al. 2025)
± gives the uncertainty stated by the source.

B1: POU domain, class 3, transcription factor 2, residues 356 to 411; numbered along this chain, P20265 (parent)
chain: KKRTSIEVSVKGALESHFLKCPKPSAQEITSLADSLQLEKEVVRVWFCNRRQKEKR

Variants of: B1
Assay: abundance fitness (aPCA) (normalised: wild type 0, dead -1); higher = more abundant; growth selection in yeast, the domain comes from the species named
Settings: Homo sapiens
With KKRTSIEVSVKGALESHFLKCPKPSAQEITSLADSLQLEKEVERVWFCNRRQKEKR [V43E] the abundance fitness was -1.01 ± 0.17. In the case of KKRTSIEVSVKGALESHFLKCPKPSAQEITSLADSLQLEKECVRVWFCNRRQKEKR [V42C], the abundance fitness is reported as -0.01 ± 0.2. Variant KKRTSIEVSVKGALESHFLKCPKPSAQEITSLADSLQLEKEVVRVWFCNRRIKEKR [Q52I] has an abundance fitness of -0.145 ± 0.15. Variant KKRTSIEVSVKGALESHFLKCPKPSAQEITSLADSWQLEKEVVRVWFCNRRQKEKR [L36W] has an abundance fitness of -0.545 ± 0.13. With KKRTSIEVSVKGALESHFLKCPKPSAQEITSLADSLQLEKEVVRVWFCNRDQKEKR [R51D] the abundance fitness was -0.381 ± 0.13. KKRTSIEVSVKGALESHFLKCPKPSAQEITSLADNLQLEKEVVRVWFCNRRQKEKR [S35N] gave an abundance fitness of -0.125 ± 0.14. Work on KKRTSIEVSTKGALESHFLKCPKPSAQEITSLADSLQLEKEVVRVWFCNRRQKEKR [V10T] yielded an abundance fitness of 0.046 ± 0.11. Variant KKRTSIEVSVKGALESHFLKCIKPSAQEITSLADSLQLEKEVVRVWFCNRRQKEKR [P22I] has an abundance fitness of -0.704 ± 0.17. In the case of KKRTSICVSVKGALESHFLKCPKPSAQEITSLADSLQLEKEVVRVWFCNRRQKEKR [E7C], the abundance fitness is reported as 0.014 ± 0.073. In the case of KKRTSIEVSVKGALESHFLKCPKPSAQEITSLADSLQLEKEVVRVWFVNRRQKEKR [C48V], the abundance fitness is reported as -0.015 ± 0.084. For KKRTSIEVSVKGALESHFLKCPKPSAQEITSLADSLQLEKEVVRVWFCNRRQKEGR [K55G], the abundance fitness was -0.029 ± 0.1. Work on KKRTSIEVSVKGALESHFLYCPKPSAQEITSLADSLQLEKEVVRVWFCNRRQKEKR [K20Y] yielded an abundance fitness of -0.379 ± 0.17. In the case of KKRTSIEVSVKGALESHFLKCPKPSAQEITSLADSLQLEKEVVRVWQCNRRQKEKR [F47Q], the abundance fitness is reported as -1 ± 0.19. KKRTSIEVSVKGALESHFLKCPKPSAQEITSLADSLQLEKEVVRVWFCNRRQKSKR [E54S] gave an abundance fitness of -0.538 ± 0.1. Work on KKRTSIEVSVKGALTSHFLKCPKPSAQEITSLADSLQLEKEVVRVWFCNRRQKEKR [E15T] yielded an abundance fitness of -0.788 ± 0.17. In the case of KKRTSIEVSHKGALESHFLKCPKPSAQEITSLADSLQLEKEVVRVWFCNRRQKEKR [V10H], the abundance fitness is reported as -0.095 ± 0.24. Work on KKRTSIEVSVKGALESHFLKCPKPSAQEITSLADSLPLEKEVVRVWFCNRRQKEKR [Q37P] yielded an abundance fitness of -0.916 ± 0.15. With KKRTSIEVSVKGALESHFSKCPKPSAQEITSLADSLQLEKEVVRVWFCNRRQKEKR [L19S] the abundance fitness was -0.03 ± 0.086. KKRTSIEVSVKGALESHFLKCPKPSAQEITSLADSLQLEKEVVRVWFCLRRQKEKR [N49L] gave an abundance fitness of -0.149 ± 0.08. KKRTSIEVSVKNALESHFLKCPKPSAQEITSLADSLQLEKEVVRVWFCNRRQKEKR [G12N] showed an abundance fitness of -0.153 ± 0.16. KKRTSIEVSVKGALESHFLKCPKPSAQEITSLADSLQLEKEVVRWWFCNRRQKEKR [V45W] gave an abundance fitness of -0.038 ± 0.14. KKRTSIEVSVKGALESHFLKCPKPSAQEITSLADSLQLEKEVVRVWFCNRRRKEKR [Q52R] gave an abundance fitness of -0.104 ± 0.068. With KKRTSIEVSVKGCLESHFLKCPKPSAQEITSLADSLQLEKEVVRVWFCNRRQKEKR [A13C] the abundance fitness was -0.044 ± 0.11. With KKRTSIEVSVKGALESHFLKCPKPSYQEITSLADSLQLEKEVVRVWFCNRRQKEKR [A26Y] the abundance fitness was -0.235 ± 0.18. With KKRTSIEVSVKEALESHFLKCPKPSAQEITSLADSLQLEKEVVRVWFCNRRQKEKR [G12E] the abundance fitness was 0.079 ± 0.13. In the case of KKRTSMEVSVKGALESHFLKCPKPSAQEITSLADSLQLEKEVVRVWFCNRRQKEKR [I6M], the abundance fitness is reported as -0.049 ± 0.17. KKRTSREVSVKGALESHFLKCPKPSAQEITSLADSLQLEKEVVRVWFCNRRQKEKR [I6R] gave an abundance fitness of -0.117 ± 0.084. KKRTSIEVSVKGALESHFLKCPKPSAQEITSLADSLQLEKEVVRVWFCNRGQKEKR [R51G] showed an abundance fitness of -0.198 ± 0.081. For KLRTSIEVSVKGALESHFLKCPKPSAQEITSLADSLQLEKEVVRVWFCNRRQKEKR [K2L], the abundance fitness was -0.222 ± 0.12. Variant KKRTSIEVSVKGALESHFLKCPKPSAQEITSLADSLVLEKEVVRVWFCNRRQKEKR [Q37V] has an abundance fitness of -0.394 ± 0.073. Variant KKRTSIEVSAKGALESHFLKCPKPSAQEITSLADSLQLEKEVVRVWFCNRRQKEKR [V10A] has an abundance fitness of -0.036 ± 0.08. Work on KKRTSIEVSVKGALESHFLKCPKPSAQEITSLADSLQLEKEVVRVWFCNRRQKVKR [E54V] yielded an abundance fitness of -0.466 ± 0.096. KKRTSIEVSVKGALESHFLKCPKPSAQEITSLADSLQLEKEVVRVWFCNRRQKESR [K55S] showed an abundance fitness of 0.024 ± 0.099. KKRTSIEVSVKGALESHFLKCPKPSAQEITSLADSLQDEKEVVRVWFCNRRQKEKR [L38D] gave an abundance fitness of -0.983 ± 0.19. KKRTSIEVSVKGALESHFLKCPKPSAQEITSLADSLQLEKEGVRVWFCNRRQKEKR [V42G] showed an abundance fitness of -0.453 ± 0.08. KKRTSIEVSVKGALESHFLKCPIPSAQEITSLADSLQLEKEVVRVWFCNRRQKEKR [K23I] gave an abundance fitness of -0.117 ± 0.16. KKRTSIEVSVKGALESHFLKCPKPSAQEITSLADSPQLEKEVVRVWFCNRRQKEKR [L36P] gave an abundance fitness of -0.608 ± 0.21. With KKRTSIEVSVKGALESHFLKCPKPSAQIITSLADSLQLEKEVVRVWFCNRRQKEKR [E28I] the abundance fitness was -0.52 ± 0.14. Work on KKRTSIEVSVKGALESHFLKCPKPSAQEITSLQDSLQLEKEVVRVWFCNRRQKEKR [A33Q] yielded an abundance fitness of -1.12 ± 0.33. In the case of KKRTSIEVSVKGALESHFLKCPKPSAQEITSLADSLQLEKEVVRVWFRNRRQKEKR [C48R], the abundance fitness is reported as -0.217 ± 0.091. With KKRTSIEVEVKGALESHFLKCPKPSAQEITSLADSLQLEKEVVRVWFCNRRQKEKR [S9E] the abundance fitness was 0.046 ± 0.12. For KKRTSIEVSVKGALESHFLKCPKPSAQEITSLADSLQLEKEVVRVWFCNREQKEKR [R51E], the abundance fitness was -0.154 ± 0.09. KKRTSIEVSVKGALESHALKCPKPSAQEITSLADSLQLEKEVVRVWFCNRRQKEKR [F18A] showed an abundance fitness of -0.902 ± 0.13. For KKRTSIEVSVKGALESHFLKCPKPSAQEITSLADSLQFEKEVVRVWFCNRRQKEKR [L38F], the abundance fitness was -0.788 ± 0.24. Work on KKRTSIEVSVKGALESHFLKCPKPSAQPITSLADSLQLEKEVVRVWFCNRRQKEKR [E28P] yielded an abundance fitness of -0.802 ± 0.18. In the case of KKRTSIEVSVKGALESHFLKCPKPSAQEITSLADSLQLEKEWVRVWFCNRRQKEKR [V42W], the abundance fitness is reported as -0.147 ± 0.094. In the case of KKRTLIEVSVKGALESHFLKCPKPSAQEITSLADSLQLEKEVVRVWFCNRRQKEKR [S5L], the abundance fitness is reported as 0.002 ± 0.085.
